# Source: paper PMC10652100, “Bacterial RNA-free RNase P: Structural and functional characterization of multiple oligomeric forms of a minimal protein-only ribonuclease P” (The Journal of Biological Chemistry, 2023)
# B1: Aquifex aeolicus HARP (Aq880) (enzyme)
# chain: MDVFVLDTSVFTNPEIYRTFEEDQRGAMETFIHLALNSRAEFYMPTSVYTEMRKIMDVGELWAEFEMVVKIRSPRRFQLTVPADFLYEFIEELRYRINKGLRIAEEHTREASGCEDVGKLIARLREKYREALRQGILDSKEDVDVLLLAYELDGVLVSADEGLRTWADKIGIKLIDPKNFKNILESLVRHRF
# notes: HARP (RNA-free RNase P) of Aquifex aeolicus, Aq880, 23 kDa; gene synthesised by Integrated DNA Technologies; Cloned into pMCSG7 (N-terminal His6 tag and TEV site); the tag was removed with TEV protease, and residues of the site may be left at the N-terminus (surmised); also called HARP from A. aeolicus; Homolog of Aquifex RNase P; source: E. coli BL21 Rosetta DE3, purified (Ni-Sepharose, DEAE, …)
# B2: His-tagged Hth1307 (enzyme, Hydrogenobacter thermophilus)
# chain: MDTFVLDTSVFTNPDVYHQFEEDQLGAIENFISLASHTNANFFMPTSVYYEFTKMVSLGDLAPKFELVVRIRSPRKWGLMVPAEFLYEFIEEVRYRINKGLRIAEEHTKEAGKLAEEEVGRVVNRLREKYREALRAGIIDSKEDVDVLLLSYELDAILVSGDEGLRKWADRVGIKLIDPKNLRYIMENLTKVGR
# notes: HARP (RNA-free RNase P) of Hydrogenobacter thermophilus, Hth1307; gene synthesised by Integrated DNA Technologies; Same construct as m2 (pMCSG7, N-terminal His6 and TEV site) with the tag left on; also called His-tagged Hydrogenobacter thermophilus HARP; source: E. coli BL21 Rosetta DE3, purified; not shown: His6, N-terminal, kept; copies: 14
# B3: Hydrogenobacter thermophilus HARP (Hth1307) (enzyme)
# chain: B2 chain
# notes: HARP (RNA-free RNase P) of Hydrogenobacter thermophilus, Hth1307; gene synthesised by Integrated DNA Technologies; Cloned into pMCSG7 (N-terminal His6 tag and TEV site); the tag was removed with TEV protease by the general purification protocol; also called Ht HARP; source: E. coli BL21 Rosetta DE3, purified (Ni-Sepharose, DEAE, TEV cleavage, second Ni-Sepharose, SEC); not shown: His6, …
# Columns and labels:
# [1] = target: the molecule itself; experiment: SEC; oligomers seen when purifying Aq880 (Superdex 200 pg 16/600; 50 mM Tris pH 8.5, 150 mM NaCl, 1 mM TCEP)
# [2] = target: the molecule itself; experiment: native MS; His-tagged Hth1307 in 200 mM ammonium acetate pH 7, nano-electrospray, Q-Exactive UHMR; 500-1000 nM protein
# [3] = target: the molecule itself; experiment: SEC; analytical, Superdex 200 Increase 5/150 GL, 50 mM Tris pH 8.5, 150 mM NaCl, 1 mM TCEP; Hth1307 from 93.6 nM upwards; A280
# [4] = target: the molecule itself; experiment: crystal structure; lower molecular weight fraction of Hth1307; 2 M ammonium sulfate, 0.1 M Bis-Tris pH 5.5, 4 C; space group C2221, two protomers in the asymmetric unit; tetramer by crystal symmetry
protein,measurement,setting,value
B1,stoichiometry N,[1],4
B2,stoichiometry N,[2],14
B3,stoichiometry N,[3],14
same,stoichiometry N,[4],4
